Consider 17 molecules from patent US20160052996A1 (NEURIMMUNE, published 2016).

Where a chain is given by its changes, count along the chain named.

Usually EC50 stands for the concentration at which the effect is half-maximal. Lower therefore signals higher potency in that assay.

B1: NI-307.47B11 (antibody, V domains shown)
VH: EVQLVESGGGLVKPGGSLRLSCAASGFTFSDYYMNWIRQAPGKGLEWLSCISSSGNTIYYADSVKGRFTISRDNAKNSLYLQMNSLRAEDTAVYYCARDLDKAATGRPYFDYWGQGTLVTVSS
VL: not shown
B2: NI-307.72F10 (antibody, V domains shown)
VH: EVQLVESGGGVVQPGRSLRLSCATSGFTFDDYAMHWVRQAPGKGLEWVSGLTWSSSGVGYADSVKGRFTISRDNAKNSLYLQMNSLRAEDTALYYCAKGSGEWLRLGQDYWGQGTLVTVSS
VL: QSVLTQPPSVSGTPGQRVTISCTGSSSNIGAGYDVHWYQQLPGTAPKLLIYDNSNRPSGVPDRFSGSKSGTSASLAITGLQAEDEAHYYCQSFDSSLSGSVFGGGTKLAVL
B3: NI-307.105A6 (antibody, V domains shown)
VH: EVQLVESGGGLVQPGRSLRLSCAASGFTFDDYAMHWVRQAPGKGLEWVSGITWNSGSIGYADSVKGRFTISRDNAKNSLYLQMNSLSAEDTALYYCAKGARDYLSYGMDVWGQGTTVTVSS
VL: B2 VL with L4V, T13A, Y51F, D52S, S54T, N55I, H87N, F93Y, A109T
B4: NI-307.26A3 (antibody, V domains shown)
VH: EVQLVESGGVLVQPGGSLRLSCAASGFTFSSYAMTWVRQAPEKGLEWVSTIIGNGAYTYYADSVKGRFTISRDNSKNTLILQMNSLRADDAAVYYCAKGTELAPYYYYFALDVWGQGTTVTVSS
VL: EIVLTQSPGTLSLSPGERATLSCRASQSISSSHLAWYQQKPGQAPRLLIYGASSRATGIPDRFSGGGSGTDFTLTITRLEPEDFAVYYCQQYGSSPYTFGQGTKLEIK
B5: NI-307.59A7 (antibody, V domains shown)
VH: EVQLVESGGGLVQPGGSLRLSCAASGFTFSSYEMNWVRQAPGKGLEWVSYISSSGTNIYHADSVKGRFTISRDNAKNSLYLQMNSLRAEDTAVYYCARDGPSPRGHNYGHDYWGQGTLVTVSS
VL: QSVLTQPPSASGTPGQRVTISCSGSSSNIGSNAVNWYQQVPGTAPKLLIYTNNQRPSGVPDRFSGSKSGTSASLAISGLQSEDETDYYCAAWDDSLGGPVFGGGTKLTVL
B6: NI-307.29B1 (antibody, V domains shown)
VH: EVQLVESGGGLVKPGGSLRLSCAASGITFQYYAMNWVRQAPGKGLEWVSSIGGRGDTTYYTDSVKGRFTISRDNSKSTLYLQMNSLRAEDTAVYYCAKEPFDSSGDHRGVFDYWGQGTLVTVSS
VL: QSVVTQPPSVSGAPGQRVTISCAGSRSNIGAGYDVNWYQQLPRTAPKLLIYDNTRRPSGVPARFSGSKSGSSASLTITGLQAEDEADYYCQSYDSKLNKVFGGGTKLTVL
B7: NI-307.57D4 (antibody, V domains shown)
VH: EVQLVESGGGLVQPGRSLRLSCAASGFTFDHYAMHWVRQVPGRGLEWVSGVTWNSGIIGYADSVKGRFTISRDNAKNSLYLQMTSLRAEDTALYYCAKGTNDFVSYGLDVWGQGTTVTVSS
VL: QSVLTQPPSVSGAPGQRVSISCTGTSSNLGAGFDVHWYQQIPRKAPELLIYGNSIRPSGVPDRFSGSKSGTSASLAITGLQAEDEADYYCQSYDSRLSGSVFGGGTKLTVL
B8: NI-307.72F7 (antibody, V domains shown)
VH: EVQLVESGGGLVQPGGSLRLSCAASGFTFSSYEMNWVRQAPGKGLEWISYISSRGSTIHYADSVKGRFTISRDDAKNSLYLQMNSLRAEDTAIYYCARDRYDFWSGCIKGCYYGMDVWGQGSTVTVSS
VL: EIVLTQSPGTLSLSPGQRATLSCRASQSISSSYLAWYQQRRGQAPRLLIYGASSRATGIPDRFSGSGSGTDFTLTISRLEPEDFAVYYCQHYGTTLTFGQGTKVDIK
B9: NI-307.27C11 (antibody, V domains shown)
VH: QVQLQESGPGLVKPSGTLSLTCAVSGDSISSSNWWSWVRQPPGKGLEWIGEIYHSGGTKYNPSLKSRVTISVDKSKNHFSLKLRSVTAADTAVYYCARNRWFDNNRGGYYYYGMDVWGQGTTVTVSS
VL: DIQMTQSPSSLSASVGDRVTITCRASQGISSYLNWYQQKPGKAPKLLISATSDLQSGVPSRFSGSGSGTDFTLTISSLQPEDFATYYCQQSYSTPYTFGQGTKLEIK
B10: NI-307.50H4 (antibody, V domains shown)
VH: B9 VH with G45R, T122M
VL: B9 VL with S26G, S31T, K45N, S49Y, S93N, T94N, L104V
B11: NI-307.98H1 (antibody, V domains shown)
VH: QLQLQESGPGLVKPSQTLSLTCAVSGASISSGTYYWGWIRQHPGKGLEWIGYIYPSGSTYYNPSLKSRVIISLDTSKSQFSLNLSSVTAADTAVYYCARDYYDSSGHMGGYYHYAMDVWGQGTTVTVSS
VL: DIQLTQSPSSLSASVGDRVTITCRASQSISSHLNWYQQKPGKVPKLLIYAASTLQSGVPSRFSGSGSGTDFTLAISSLQPADFATYYCQQSYSTPRTFGQGTKVDIK
B12: NI-307.45E10 (antibody, V domains shown)
VH: EVQLVESGGGLVQPGGSLRLSCAASGFSFRFYAMNWVRQAPGKGLEYVSGISGGGGTTYYADSVKGRFTISRDNSKNTLYLQMKSLRAEDTAIYYCAKDQSYCSGAGCHPYYLDYWGQGTLVTVSS
VL: SYVLTQPPSVSVAPGQTARITCGGNNIGSKSVHWYQQKPGQAPVVVVYDDSGRPSGMPERFSGSNSGNTATLTISRVEAGDEADYYCQVWDSSSDHLYVFGTGTKVTVL
B13: NI-307.105C7 (antibody, V domains shown)
VH: B12 VH with R30G, I51V, T57S, A106G, G107S
VL: B12 VL with M57I, L97P
B14: NI-307.27C2 (antibody, V domains shown)
VH: EVQLVESGGGLVKPGGSLRLSCAASGFTFSSYTMNWVRQAPGKGLQWVSSISSSSTYMYYGDSVKGRFTISRDNARNSLYLQMNSLRVEDTAVYYCARYAHDWNVDYWGQGTLVTVSS
VL: QSVLTQPPSASGTPGQRVTISCSGGSSNIGSNPVNWFQQFPGTAPKLLIYANTQRPSGVPDRFSGSKSGTSVSLAISGLQSEDEGDYHCAAWDDSLKGWVFGGGTKLTVL
B15: NI-307.56A8 (antibody, V domains shown)
VH: B14 VH with T33R, Q46E, T56S, M58I, R76K, N84S, V88A, V105I
VL: not shown
B16: NI-307.43E8 (antibody, V domains shown)
VH: EVQLVESGGDVVQPGRSLRLSCAASGFAFSIYAMNWVRQAPGKGLEWVALISTSGTEHYADSVKGRFTISRDNSKNTLFLQINSLRVEDTAVYYCARDLDSTGYYENNYWGQGTLVTVSS
VL: DVVMTQSPLSSPVSLGQPASISCRSSHSLVHSNGDTYLSWLQQRPGQPPRLLIYKISNRFSGVPDRFSGSGAGTDFTLKISRVEAEDVGVYFCMQATSFPRTFGQGTKVEIK
B17: NI-307.53B11 (antibody, V domains shown)
VH: EVQLVQSGAEVKKPGESLKISCKGSGYSFTSYWIGWVRQMPGKGLEWMGIIYPGDSDTRYSPSFQGQVTISADKSITTAYLQWSSLKASDTALYYCARRGSGSFSNYDFWGQGTLVTVSS
VL: QSALTQPRSVSGSPGQSVTISCTGTSSDVGAYNYVSWYQQHPVKAPKLMIYDVSKRPSGVPDRFSGSRSGNTASLTISGLQADDEADYYCCSYAGTYTVLFGGGTKLTVL

The target in the assay is T1, JCV VP1 VLP (JC virus (JCV), Mad-1 strain, UniProt P03089 1-354).
T1 construct: also called JCV VP1 VLPs; JCV VP1 (coating with reassociation buffer)
Nature of the assay: direct ELISA, plate coated with antigen at 5 µg/ml in reassociation buffer (VLP); EC50 by non-linear regression (GraphPad Prism). In general terms: ELISA stands for enzyme-linked immunosorbent assay.
B1: a half-maximal effect (EC50) was put at 48 pM.
As for B2, the EC50 came to 31 pM.
The molecule B3 yielded an EC50 of 69 pM.
Next, B4: 49 pM; B5: 66 pM.
Next, B6: 76 pM; B7: 53 pM.
B8 displayed an EC50 of 19 pM.
Next, B9: 42 pM; B10: 55 pM; B11: 86 pM.
For the molecule B12, the EC50 came out at 24 pM.
For B13 the value was 40 pM; for B14, 52 pM; for B15, 41 pM.
The molecule B16 registered a half-maximal effective concentration (EC50) of 640 pM.
On to B17, for which the EC50 came to 64 pM.
